Test results reported in patent publication US20240132591A1 (PANDION OPERATIONS, published 2024).
Where a chain is given by its changes, count along the chain named. “And” between values parts separate entries of the source, which are not always exact repeats. Identical values can stand only once. Values belong to the binder of their own block, whether it stands above or below them.

What was measured:
[1] = biological target: T1, Human MAdCAM (human, UniProt Q13477 19-317, limits assumed); assay: BLI Octet
T1 construct: also called huMAdCAM; human MAdCAM-1
T1 sequence (looked up): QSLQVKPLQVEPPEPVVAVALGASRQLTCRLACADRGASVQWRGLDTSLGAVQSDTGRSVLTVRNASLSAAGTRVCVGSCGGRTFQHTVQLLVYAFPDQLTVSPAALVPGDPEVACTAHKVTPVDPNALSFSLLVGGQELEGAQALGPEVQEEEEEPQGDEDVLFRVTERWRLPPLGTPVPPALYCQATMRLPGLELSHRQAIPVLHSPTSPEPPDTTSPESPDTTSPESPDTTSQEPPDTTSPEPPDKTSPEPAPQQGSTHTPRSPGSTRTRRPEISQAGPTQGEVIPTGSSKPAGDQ

[2] = biological target: T2, mouse MAdCAM (mouse, UniProt Q61826 22-365, limits assumed); assay: BLI Octet
T2 construct: also called mouse MAdCAM-1
T2 sequence (looked up): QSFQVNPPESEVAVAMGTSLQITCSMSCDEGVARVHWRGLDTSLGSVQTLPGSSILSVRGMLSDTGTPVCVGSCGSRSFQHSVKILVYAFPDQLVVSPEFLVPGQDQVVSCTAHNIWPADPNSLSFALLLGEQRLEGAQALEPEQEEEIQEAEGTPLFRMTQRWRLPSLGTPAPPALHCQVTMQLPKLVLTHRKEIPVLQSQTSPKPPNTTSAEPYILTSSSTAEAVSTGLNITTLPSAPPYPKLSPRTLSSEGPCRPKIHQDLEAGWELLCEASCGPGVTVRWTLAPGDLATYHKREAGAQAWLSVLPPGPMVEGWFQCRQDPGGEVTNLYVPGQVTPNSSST

[3] = biological target: T1, Human MAdCAM; assay: BLI Octet, AHC capture
[4] = biological target: T2, mouse MAdCAM; assay: BLI Octet, AHC capture
[5] = biological target: T3, cyno MAdCAM (cyno); assay: BLI Octet, AHC capture
T3 construct: also called cynomolgus monkey MAdCAM-1

[6] = biological target: T4, Insulin (UniProt P01308 25-54; P01308 90-110); assay: ELISA on insulin-coated plate
T4 construct: Polyreactivity antigen; mature insulin has A and B chains; also called human insulin

Kd [1]: 37.6 nM | koff [1]: 0.0398 s⁻¹ | kon [1]: 1.06e+06 M⁻¹ s⁻¹ | response [1]: 0.0839 | Kd [2]: 124 nM | koff [2]: 0.0463 s⁻¹ | kon [2]: 374000 M⁻¹ s⁻¹ | response [2]: 0.256 | Kd [3]: 135 nM and 115 nM and 116 nM and 62.8 nM | koff [3]: 0.0341 s⁻¹ and 0.0351 s⁻¹ and 0.0276 s⁻¹ and 0.0365 s⁻¹ | kon [3]: 252000 M⁻¹ s⁻¹ and 306000 M⁻¹ s⁻¹ and 238000 M⁻¹ s⁻¹ and 581000 M⁻¹ s⁻¹ | Kd [4]: 138 nM | koff [4]: 0.0204 s⁻¹ | kon [4]: 148000 M⁻¹ s⁻¹ | response [4]: 0.139
B1: PMAB1 (bispecific antibody, human IgG1, kappa)
heavy: EVQLLESGGGLVQPGGSLRLSCAASGFTFSNSDMSWVRQAPGKGLEWVSGITISGGSTYYADSVKGRFTISRDNSKNTLYLQMNSLRAEDTAVYYCARGRGGSGWLDYWGQGTLVTVSSASTKGPSVFPLAPSSKSTSGGTAALGCLVKDYFPEPVTVSWNSGALTSGVHTFPAVLQSSGLYSLSSVVTVPSSSLGTQTYICNVNHKPSNTKVDKKVEPKSCDKTHTCPPCPAPEAAGAPSVFLFPPKPKDTLMISRTPEVTCVVVDVSHEDPEVKFNWYVDGVEVHNAKTKPREEQYNSTYRVVSVLTVLHQDWLNGKEYKCKVSNKALPAPIEKTISKAKGQPREPQVYTLPPSREEMTKNQVSLTCLVKGFYPSDIAVEWESNGQPENNYKTTPPVLDSDGSFFLYSKLTVDKSRWQQGNVFSCSVMHEALHNHYTQKSLSLSPGGGGGSGGGGSGGGGSEVQLLESGGGLVQPGGSLRLSCAASGFTFSDFWMHWVRQAPGKGLEWISYISGDSGYTNYADSVKGRFTISRDNSKNTLYLQMNSLRAEDTAVYYCARDRPYYYYMDVWGKGTTVTVSSGGGGSGGGGSGGGGSGGGGSDIQMTQSPSSLSASVGDRVTITCRASQSVSRSLAWYQQKPGKAPKLLIYAASSLQSGVPSRFSGSGSGTDFTLTISSLQPEDFATYYCQQYKSYPVTFGQGTKVEIK
light: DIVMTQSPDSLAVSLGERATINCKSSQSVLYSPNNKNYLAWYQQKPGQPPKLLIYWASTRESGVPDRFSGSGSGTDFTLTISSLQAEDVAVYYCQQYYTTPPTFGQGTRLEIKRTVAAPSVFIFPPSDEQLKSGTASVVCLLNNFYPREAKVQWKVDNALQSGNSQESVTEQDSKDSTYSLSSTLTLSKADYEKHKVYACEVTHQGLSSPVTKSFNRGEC
notes: also called Parental molecule; parental PMAB1

Kd [5]: 13 nM
B2: PRNT1 (antibody, human IgG1, kappa)
heavy: EVQLLESGGGLVQPGGSLRLSCAASGFTFSDFWMHWVRQAPGKGLEWISYISGDSGYTNYADSVKGRFTISRDNSKNTLYLQMNSLRAEDTAVYYCARDRPYYYYMDVWGKGTTVTVSSASTKGPSVFPLAPSSKSTSGGTAALGCLVKDYFPEPVTVSWNSGALTSGVHTFPAVLQSSGLYSLSSVVTVPSSSLGTQTYICNVNHKPSNTKVDKKVEPKSCDKTHTCPPCPAPEAAGAPSVFLFPPKPKDTLMISRTPEVTCVVVDVSHEDPEVKFNWYVDGVEVHNAKTKPREEQYNSTYRVVSVLTVLHQDWLNGKEYKCKVSNKALPAPIEKTISKAKGQPREPQVYTLPPSREEMTKNQVSLTCLVKGFYPSDIAVEWESNGQPENNYKTTPPVLDSDGSFFLYSKLTVDKSRWQQGNVFSCSVMHEALHNHYTQKSLSLSPGGGGGSAPTSSSTKKTQLQLEHLLLDLQMILNGINNYKNPKLTRMLTFKFYMPKKATELKHLQCLEEELKPLEEALNLAPSKNFHLRPRDLISDINVIVLELKGSETTFMCEYADETATIVEFINRWITFSQSIISTLT
light: DIQMTQSPSSLSASVGDRVTITCRASQSVSRSLAWYQQKPGKAPKLLIYAASSLQSGVPSRFSGSGSGTDFTLTISSLQPEDFATYYCQQYKSYPVTFGQGTKVEIKRTVAAPSVFIFPPSDEQLKSGTASVVCLLNNFYPREAKVQWKVDNALQSGNSQESVTEQDSKDSTYSLSSTLTLSKADYEKHKVYACEVTHQGLSSPVTKSFNRGEC
notes: also called parent PRNT1; parental molecule PRNT1

binding result [6]: no binding (tested: 100 nM) | Kd [3]: 266 nM and 340 nM | fold lower affinity than PRNT1 [3]: 10 fold | koff [3]: 0.0738 s⁻¹ | kon [3]: 278000 M⁻¹ s⁻¹ | Kd [5]: 153 nM
B3: MIAB169 (antibody, human IgG1, kappa)
heavy: B2 heavy with Y105I
light: B2 light
notes: Y105I variant; also called MIAB169-CHO; MIAB169-HEK
